Results: article PMC3229523, “Identification of Lactoferricin B Intracellular Targets Using an Escherichia coli Proteome Chip” (PLoS ONE, 2011)
Ends that are not written are not given here. * marks the point of attachment. Biotin = O=C1N[C@H]2[C@H](CS[C@H]2CCCCC(=O)*)N1

What was measured:
Experiment in all cases: peptide or protein array; E. coli proteome chip: purified His-tagged proteins printed in duplicate on Fullmoon slides, blocked with 1% BSA; 10 nM N-terminal biotinylated LfcinB with 1% BSA, room temperature, 1 h; detected with DyLight 649-labeled streptavidin, ratio to DyLight 549-labeled anti-His antibody; ProCAT normalisation, local cut-off; triplicate chips
Details in all cases: both partners purified
MetL = biological target: T1, MetL (E. coli K-12, UniProt P00562 1-810)
T1 construct: MetL, E. coli K-12
T1 sequence (looked up): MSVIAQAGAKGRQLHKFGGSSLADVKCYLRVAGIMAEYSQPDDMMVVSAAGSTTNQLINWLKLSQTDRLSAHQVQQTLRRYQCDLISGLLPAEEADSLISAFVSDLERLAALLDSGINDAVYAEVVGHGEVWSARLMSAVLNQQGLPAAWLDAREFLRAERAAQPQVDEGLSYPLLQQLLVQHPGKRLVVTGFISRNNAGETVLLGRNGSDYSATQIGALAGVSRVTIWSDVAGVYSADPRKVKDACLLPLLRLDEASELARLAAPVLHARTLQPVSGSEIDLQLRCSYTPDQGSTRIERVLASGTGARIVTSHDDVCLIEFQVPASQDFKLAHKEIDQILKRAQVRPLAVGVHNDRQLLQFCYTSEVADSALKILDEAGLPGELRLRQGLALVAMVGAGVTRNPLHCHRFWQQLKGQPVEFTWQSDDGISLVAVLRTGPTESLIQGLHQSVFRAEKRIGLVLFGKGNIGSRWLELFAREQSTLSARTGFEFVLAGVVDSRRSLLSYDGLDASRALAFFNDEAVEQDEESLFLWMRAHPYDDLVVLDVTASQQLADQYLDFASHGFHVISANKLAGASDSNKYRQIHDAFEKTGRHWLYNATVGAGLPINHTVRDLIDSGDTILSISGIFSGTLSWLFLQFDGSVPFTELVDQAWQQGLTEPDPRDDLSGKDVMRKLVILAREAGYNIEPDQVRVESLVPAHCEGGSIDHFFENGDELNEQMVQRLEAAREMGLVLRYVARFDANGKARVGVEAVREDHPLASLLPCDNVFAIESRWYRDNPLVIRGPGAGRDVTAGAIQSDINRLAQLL

RfaZ = biological target: T2, RfaZ (E. coli K-12, UniProt P27241 1-283)
T2 construct: RfaZ, E. coli K-12
T2 sequence (looked up): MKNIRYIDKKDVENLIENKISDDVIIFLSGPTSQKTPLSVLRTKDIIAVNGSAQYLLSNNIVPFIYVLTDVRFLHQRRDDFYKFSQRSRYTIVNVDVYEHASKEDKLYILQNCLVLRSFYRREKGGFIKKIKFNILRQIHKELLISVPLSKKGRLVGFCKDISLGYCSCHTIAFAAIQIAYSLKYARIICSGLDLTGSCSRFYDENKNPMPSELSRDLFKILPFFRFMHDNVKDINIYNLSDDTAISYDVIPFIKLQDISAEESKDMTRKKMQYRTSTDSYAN

YjdI = biological target: T3, YjdI (E. coli K-12, UniProt P0AF59 1-76)
T3 construct: YjdI, E. coli K-12
T3 sequence (looked up): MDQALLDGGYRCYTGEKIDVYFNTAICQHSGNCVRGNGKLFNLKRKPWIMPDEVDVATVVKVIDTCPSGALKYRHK

HisA = biological target: T4, HisA (E. coli K-12, UniProt P10371 1-245)
T4 construct: HisA, E. coli K-12

YbaO = biological target: T5, YbaO (E. coli K-12, UniProt P0ACJ5 1-152)
T5 construct: YbaO, E. coli K-12
T5 sequence (looked up): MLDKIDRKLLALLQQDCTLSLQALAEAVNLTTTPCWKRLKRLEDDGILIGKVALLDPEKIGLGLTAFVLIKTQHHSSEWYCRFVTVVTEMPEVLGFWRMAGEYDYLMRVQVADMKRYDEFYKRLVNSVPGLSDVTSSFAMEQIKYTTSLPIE

YhhI = biological target: T6, YhhI (E. coli K-12, UniProt P28912 1-378)
T6 construct: YhhI, E. coli K-12
T6 sequence (looked up): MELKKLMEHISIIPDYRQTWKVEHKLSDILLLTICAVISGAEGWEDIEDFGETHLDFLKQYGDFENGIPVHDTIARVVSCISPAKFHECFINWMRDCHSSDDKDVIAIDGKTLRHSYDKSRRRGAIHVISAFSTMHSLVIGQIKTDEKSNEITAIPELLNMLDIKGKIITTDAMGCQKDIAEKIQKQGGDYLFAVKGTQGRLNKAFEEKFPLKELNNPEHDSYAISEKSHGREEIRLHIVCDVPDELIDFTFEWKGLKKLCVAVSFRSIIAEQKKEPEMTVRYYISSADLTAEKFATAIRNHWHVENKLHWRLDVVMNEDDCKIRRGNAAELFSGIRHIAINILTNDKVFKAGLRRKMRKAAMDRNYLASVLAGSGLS

Measured: binding result

T4 sequence (P10371 whole entry): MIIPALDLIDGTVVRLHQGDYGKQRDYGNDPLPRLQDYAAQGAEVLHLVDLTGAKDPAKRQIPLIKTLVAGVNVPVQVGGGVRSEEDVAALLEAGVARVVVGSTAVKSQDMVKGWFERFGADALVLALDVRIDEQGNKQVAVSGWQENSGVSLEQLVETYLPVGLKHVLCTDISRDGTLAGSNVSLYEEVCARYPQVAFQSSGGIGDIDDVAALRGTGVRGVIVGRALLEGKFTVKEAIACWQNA

B1: N-terminal biotinylated Lactoferricin B (peptide, UniProt P24627 36-60, looked up)
peptide: Biotin-FKCRRWQWRMKKLGAPSITCVRRAF
modifications: ends and bridges not checked
notes: lactoferricin B (LfcinB), cationic antimicrobial peptide of 25 amino acids; also called biotinylated LfcinB; biotin-labeled LfcinB; source: bought: Kelowna Inc
binds: MetL | RfaZ | YjdI | HisA | YbaO | YhhI
